The source of these data is patent publication US20090117124A1 (Pfizer, published 2009).

Usually Kd stands for a measure of binding affinity in units of concentration. The koff is a measure of how fast the partners let go of each other. Usually kon stands for a measure of how fast the partners come together. For orientation: IC50 means the concentration at which inhibition is half-maximal.

Assay [1] has as its target T1, human IgE (Human myeloma, azide free, Serotec, Cat. No. PHP008X2) (human, UniProt P01854 1-546).
T1 construct: mature; Bought full length human myeloma IgE; in the BIAcore kinetics Serotec PHP008X2 or Europa Bioproducts CP1035K was used; also called full length human IgE; human immunoglobulin E
As to the kind of experiment: BIAcore 3000, antibody immobilised, full length human IgE injected. The procedure: An immobilization binding response of 50-600 RU was obtained using CM5 sensor chips (BIAcore™) and 10 mM sodium acetate, pH 5.0 as immobilization buffer. The reference flow cell was activated (with EDC-NHS) and blocked (with ethanolamine) but no protein was immobilized. […] A regeneration step was included after the dissociation phase; the conditions used for the various antibodies are given in Table 17 below.
All sensorgrams were fitted locally using BIA evaluation software 4.1 (BIAcore™) and Scrubber software version 2.0 (BioLogic Software).
Background: In SPR one partner is held on a chip, and binding of the other changes the refractive index at the surface.

Assay [2] deals with T2, cynomolgus monkey IgE (in cynomolgus serum, Harlan Sera-Lab Ltd) (cynomolgus monkey).
T2 construct: Serum was the source of IgE; eight serum samples; also called cynomolgus IgE; Cyno 1 to Cyno 8 serum samples
As to the kind of experiment: capture ELISA, Test 2, Cyno 4. The procedure: Wells were washed once with 150 μL/well wash buffer (0.05% Tween-20, Sigma, Cat. No. P7949/TBS) then blocked with 150 μL/well 1% BSA (Sigma, Cat. No. A7030) in TBS for 2 hours at room temperature. Wells were washed twice with 150 μL wash buffer. 50 μL human (in-house donors) or cynomolgus serum (Harlan Sera-Lab Ltd, Loughborough) was added from neat to at least 1:16 dilution in 1% BSA/0.05% Tween-20/TBS diluent buffer. […] Wells were incubated for 2 hours at 25° C. before washing (3×150 μL wash buffer). […] Wells were incubated for 1 hour at 25° C. then washed (3×150 μL wash buffer). Streptavidin-HRP (Amersham Bioscience, Cat. No. RPN 1231) diluted 1:1000 in diluent buffer was added to all wells and incubated for 45 minutes at room temperature. Wells were washed (3×150 […] wash buffer). 50 μL OPD (Dako, Cat. No. S2045) was added to all wells and the color allowed to develop for 10 minutes before stopping the reaction with 50 μl 0.6M H₂SO₄ and the absorbance measured at 490 nm.
In general terms: ELISA stands for enzyme-linked immunosorbent assay.

Assay [3] addresses T1, human IgE (Human myeloma, azide free, …). As to the kind of experiment: inhibition of IgE binding to RBL-2H3 (FcεR1) cells. As for the experimental part:
RBL-2H3 (FcεR1) cells were cultured in MEM-Earles (Invitrogen Cat. No. 2109002) supplemented with 2 mM L-Glutamine (Sigma, Cat. No. G7513), 1 mg/mL Geneticin Liquid (Invitrogen Cat. No. 10131027) and 15% FBS (PAA Laboratories GmbH, Cat. No. A15-043). RBL-2H3 (FcεR1) cells were seeded into sterile 96-well plates (Costar, Fisher Scientific, Cat. No. TKY-521-090S) at 1×10⁵ cells/well and cultured overnight at 37° C., 5% CO₂ in a humidified atmosphere. The next day cells were washed 3× with 150 μL/well wash buffer (10% BSA, Sigma Cat. No A7030, in PBS, Sigma, Cat. No D8537). […] Cells were washed 3× with 150 μL/well wash buffer and then incubated with 50 μL/well streptavidin-HRP (Amersham Bioscience, Cat. No. RPN 1231) diluted 1:250, for 45 minutes. Cells were washed 3× with 150 μL/well wash buffer. 50 μL OPD (Dako, Cat. No. S2045) was added to all wells and the colour allowed to develop for 10 minutes before stopping the reaction with 50 μL 0.6M H₂SO₄ and the absorbance measured at 490 nm.

Assay [4] deals with T3, free IgE in human serum (healthy volunteers, in-house donors) (human, UniProt P01854-1 1-428).
T3 construct: Kept apart from the bought myeloma IgE because it is native serum IgE of single donors; also called serum IgE
T3 sequence (P01854 other isoform, or with tags, fused parts or gaps): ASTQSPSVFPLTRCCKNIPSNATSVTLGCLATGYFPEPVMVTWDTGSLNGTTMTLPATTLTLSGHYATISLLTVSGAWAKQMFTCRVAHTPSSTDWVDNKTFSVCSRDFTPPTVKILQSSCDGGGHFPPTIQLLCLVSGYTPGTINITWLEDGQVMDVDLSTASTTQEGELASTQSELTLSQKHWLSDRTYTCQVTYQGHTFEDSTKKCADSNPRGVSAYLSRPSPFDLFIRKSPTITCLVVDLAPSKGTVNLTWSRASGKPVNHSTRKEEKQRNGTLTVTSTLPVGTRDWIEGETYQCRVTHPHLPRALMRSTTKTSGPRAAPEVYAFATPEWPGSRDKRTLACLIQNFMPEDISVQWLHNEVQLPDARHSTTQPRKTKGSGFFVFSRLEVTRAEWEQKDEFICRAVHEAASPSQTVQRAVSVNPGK
Description: serum free IgE depletion ELISA; DIN 0347. The procedure:
(§1) The next day ELISA plates were washed 1× with 300 μL/well wash buffer (0.05% Tween-20, Sigma, Cat. No. P7949/TBS) then blocked with 150 μL/well 1% BSA (Sigma, Cat. No. A7030) in TBS for 1 hour at room temperature.

The target in assay [5] is T3, free IgE in human serum (healthy …). Description: serum free IgE depletion ELISA; DIN 0649. The procedure:
as §1

For assay [6] the target is unchanged. As to the kind of experiment: serum free IgE depletion ELISA; DIN 0461. As for the experimental part: as §1
Assay [7] concerns the target T1, human IgE (Human myeloma, azide free, …). Description: ELISA on coated immunoglobulin. As for the experimental part: (§2) Wells were washed 3× with 150 μL wash buffer (0.05% Tween-20 (Sigma, Cat. No. P7949)/PBS) then blocked with 150 μL/well blocking buffer (2.5% BSA (Sigma, Cat. No. A7030)/PBS) for 2 hours at room temperature. Wells were washed 3× with 150 μL wash buffer/well. […] Antibodies were diluted in diluent buffer (PBS/1% BSA/0.05% Tween-20) and this was added to blank control wells (duplicate wells for each secondary antibody used). Antibodies were incubated for 2 hours at room temperature. Wells were washed 3× with 150 μL wash buffer/well. Binding of control antibodies to immunoglobulin was detected with anti-mouse IgG-HRP conjugate (Sigma, Cat. No. A4416) diluted 1:8000 in diluent buffer. 50 μL/well was added to control antibody and blank wells. Wells were incubated for 1 hour at room temperature, then washed 3× with 150 μL wash buffer/well. 50 μl OPD (Dako, Cat. No. […] Wells were incubated for 1 hour at room temperature then washed 3× with 150 μL wash buffer/well. Streptavidin-HRP (Amersham Bioscience, Cat. No. RPN 1231) diluted 1:2000 in diluent buffer was added to all wells and incubated for 45 minutes at room temperature. Wells were washed (3×150 μL wash buffer).

Assay [8] concerns the target T4, human IgG1 (Biodesign, Cat. No. A50183H) (human).
T4 construct: Bought immunoglobulin coated on the plate
As to the kind of experiment: ELISA on coated immunoglobulin. The procedure:
as §2

The target in assay [9] is T3, free IgE in human serum (healthy …). As to the kind of experiment: serum free IgE depletion ELISA; DIN 0011 experiment 2. As for the experimental part: as §1

T1 sequence (P01854 whole entry): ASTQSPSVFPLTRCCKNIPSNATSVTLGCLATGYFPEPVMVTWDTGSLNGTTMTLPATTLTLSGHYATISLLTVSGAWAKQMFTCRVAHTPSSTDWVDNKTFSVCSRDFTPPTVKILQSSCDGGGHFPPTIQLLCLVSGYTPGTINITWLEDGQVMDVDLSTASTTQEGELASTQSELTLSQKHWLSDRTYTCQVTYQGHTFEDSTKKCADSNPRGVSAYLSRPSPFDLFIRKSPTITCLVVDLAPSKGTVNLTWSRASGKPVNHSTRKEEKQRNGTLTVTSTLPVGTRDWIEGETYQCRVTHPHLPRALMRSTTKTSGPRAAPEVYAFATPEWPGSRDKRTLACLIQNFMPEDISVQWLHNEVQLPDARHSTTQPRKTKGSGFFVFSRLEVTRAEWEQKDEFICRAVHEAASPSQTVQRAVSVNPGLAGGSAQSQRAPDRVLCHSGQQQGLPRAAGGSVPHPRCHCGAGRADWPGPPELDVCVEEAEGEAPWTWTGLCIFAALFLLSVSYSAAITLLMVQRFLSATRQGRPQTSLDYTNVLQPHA

B1: 5.948.1 (recombinant) (antibody, human IgG2, kappa, V domains shown)
VH: QVQLVQSGAEVKKPGASVKVSCKASGYTFTSYDINWVRQATGQGLEWMGWMDPNSGNTGYAQKFQGRVTMTRNTSISTAYMELSSLRSEDTAVYYCARGHYDSDGYYSFSGMDVWGQGTTVTVSS
VL: not shown
notes: Human IgG2 kappa; leader omitted; Two batches were tested in some assays; also called recombinant 5.948.1; 5.948.1 - Batch 1 (762.8 µg/mL)
In turn, B1 displayed a Kd in assay [1] of 1.32 nM. For the same molecule, in assay [1], the koff was determined as 3.11e-05 s⁻¹. The kon in assay [1] was 23600 M⁻¹ s⁻¹. Also, the IgE concentration detected in [2] turned out to be 38 ng/mL. The half-maximal inhibitory concentration (IC50) in [3] was < 0.5 µg/mL. Further, the “IC25 ng/mL” value in [4] stood at 4.92 µg/mL; in assay [5], 1.95 µg/mL; in assay [6], 1.47 µg/mL; in assay [9], 6.34 µg/mL. Further, the A290 nm in assay [7] worked out at 2.57 A290 nm; in assay [8] it was 0.07 A290 nm.

B2: 5.948.1 Hc-H100Y (antibody, human IgG2, kappa, V domains shown)
VH: QVQLVQSGAEVKKPGASVKVSCKASGYTFTSYDINWVRQATGQGLEWMGWMDPNSGNTGYAQKFQGRVTMTRNTSISTAYMELSSLRSEDTAVYYCARGYYDSDGYYSFSGMDVWGQGTTVTVSS
VL: not shown
notes: Human IgG2 kappa; leader omitted; also called 5.948.1 (H100Y); 5.948.1 H100Y
Turning to B2, binding in assay [1] was characterised by a dissociation constant (Kd) of 0.159 nM. The molecule further registered a koff in [1] of 2.42e-05 s⁻¹. The same molecule returned a kon in assay [1] of 151000 M⁻¹ s⁻¹. The same molecule showed an IgE concentration detected in assay [2] of 25 ng/mL. Further, the IC50 in [3] is < 0.5 µg/mL. The “IC25 ng/mL” value worked out at 1.33 µg/mL in [4], 0.39 µg/mL in assay [5], 0.34 µg/mL in [6] and 2.96 µg/mL in [9]. Further, the A290 nm in [7] turned out to be 1.05 A290 nm; in assay [8] it was 0.06 A290 nm.
